Patent US20190127480A1

Target: human CD3 expressed on cells (Jurkat cells; human T-cells of PBMC) (human) (UniProt P09693)
Experiment: cell-based or functional assay

human CD3 expressed on cells (Jurkat cells; human T-cells of PBMC) (human), sequence (chain, as listed by the source, chain 1 of 4): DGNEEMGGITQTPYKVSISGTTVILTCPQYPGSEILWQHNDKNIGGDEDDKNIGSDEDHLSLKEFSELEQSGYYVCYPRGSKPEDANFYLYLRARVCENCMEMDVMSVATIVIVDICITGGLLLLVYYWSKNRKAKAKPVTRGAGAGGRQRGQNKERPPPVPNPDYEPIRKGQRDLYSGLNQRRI
human CD3 expressed on cells (Jurkat cells; human T-cells of PBMC) (human), sequence (chain, as listed by the source, chain 2 of 4): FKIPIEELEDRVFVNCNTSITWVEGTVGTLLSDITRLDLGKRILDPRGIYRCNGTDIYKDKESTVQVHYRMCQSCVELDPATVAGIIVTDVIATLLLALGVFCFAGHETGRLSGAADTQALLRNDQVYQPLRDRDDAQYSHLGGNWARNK
human CD3 expressed on cells (Jurkat cells; human T-cells of PBMC) (human), sequence (P09693 23-182, chain 3 of 4): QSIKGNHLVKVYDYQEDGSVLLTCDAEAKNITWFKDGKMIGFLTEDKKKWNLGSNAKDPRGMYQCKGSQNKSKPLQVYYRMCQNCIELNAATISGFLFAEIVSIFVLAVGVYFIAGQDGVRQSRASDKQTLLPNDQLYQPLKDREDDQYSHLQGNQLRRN
human CD3 expressed on cells (Jurkat cells; human T-cells of PBMC) (human), sequence (P20963 22-164, chain 4 of 4): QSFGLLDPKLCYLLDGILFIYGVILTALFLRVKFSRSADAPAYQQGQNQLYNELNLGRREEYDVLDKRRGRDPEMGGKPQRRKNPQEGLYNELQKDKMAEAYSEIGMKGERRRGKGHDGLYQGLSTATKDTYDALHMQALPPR

B1: H1H5756B (antibody, human IgG1, V domains shown)
VH: EVQLVESGGGVVQPGRSLRLSCTASGFPFSRYGMHWVRQAPGKGLEWVTFIWYDGSNKYYADSAKGRFTITRDNSKNTVYLQMDSLRADDTAVYYCVRDQAALYYFDSWGQGTLVTVSS
VL: DIQMTQSPSSVSASVGDRVTITCRASQGISRWLAWYQQKPGKAPKLLISAASSLQSGVPSRFSGSGSGTDFTLTISGLQPEDFATYYCQKANSFPFTFGPGTKLEIKR
U937 Cytotoxicity Human T-cells: 76.9 pM
